One may read the stoichiometry N as a count of units in the complex or per binding partner.

Data on one protein can be found in PMC12697864, “cGAS Inhibits ALDH2 to Suppress Lipid Droplet Function and Regulate MASLD Progression” (Advanced Science, 2025).

The series concerns the molecule itself. Briefly: mass photometry; TWOMP (Refeyn), room temperature, 1X PBS with 1 mM β-mercaptoethanol, proteins at 10 nM-400 nM; hALDH2 with NAD+, with or without mcGAS; tetramer formation.

B1: His-ALDH2, purified full-length human ALDH2 (enzyme, UniProt P05091 18-517, looked up)
chain: SAAATQAVPAPNQQPEVFCNQIFINNEWHDAVSRKTFPTVNPSTGEVICQVAEGDKEDVDKAVKAARAAFQLGSPWRRMDASHRGRLLNRLADLIERDRTYLAALETLDNGKPYVISYLVDLDMVLKCLRYYAGWADKYHGKTIPIDGDFFSYTRHEPVGVCGQIIPWNFPLLMQAWKLGPALATGNVVVMKVAEQTPLTALYVANLIKEAGFPPGVVNIVPGFGPTAGAAIASHEDVDKVAFTGSTEIGRVIQVAAGSSNLKRVTLELGGKSPNIIMSDADMDWAVEQAHFALFFNQGQCCCAGSRTFVQEDIYDEFVERSVARAKSRVVGNPFDSKTEQGPQVDETQFKKILGYINTGKQEGAKLLCGGGIAADRGYFIQPTVFGDVQDGMTIAKEEIFGPVMQILKFKTIEEVVGRANNSTYGLAAAVFTKDLDKANYLSQALQAGTVWVNCYDVFGAQSPFGGYKMSGSGRELGEYGLQAYTEVKTVTVKVPQKNS
notes: aldehyde dehydrogenase 2 (ALDH2), human, full-length gene, codon-optimised, in pET28a; Two preparations: likely apo hALDH2, and tetrameric hALDH2 isolated by SEC after incubation with 1 mM NAD+; Tetramer forms with NAD+ (mass photometry); also called hALDH2; bacterially purified ALDH2 proteins; source: E. coli Rosetta (DE3), purified (Ni Sepharose, Q column, SEC); not shown: His6, N-terminal, kept
As to B1, the “stoichiometry N” value was determined as 4.
